Experimental data taken from the supplement of paper PMC5998384.

Columns and labels:
[1] = system: HeLa Kyoto; test: solubility change mitosis vs G1/S (difference of NP-40 vs SDS log2 ratios) (log2 ratio difference); higher = more soluble in mitosis
[2] = system: HeLa Kyoto; test: solubility in G1/S (NP-40 vs SDS abundance) (log2 ratio); higher = more soluble; conditions: cell cycle stage: G1/S
[3] = system: HeLa Kyoto; test: melting temperature (median over replicates), in situ; higher = more thermally stable
[4] = system: HeLa Kyoto; test: thermal stability score vs G1/S (z-score of summed log2 fold changes over temperatures); higher = more thermally stable than in G1/S
[5] = cell cycle stage: early G1 (4.5 h after nocodazole release)
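Wherever melting temperature (median over replicates), in situ is given: HeLa Kyoto cells synchronized by double thymidine or nocodazole block, proteins quantified by TMT10plex mass spectrometry, three independent biological replicates.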
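Wherever solubility change mitosis vs G1/S (difference of NP-40 vs SDS log2 ratios) is given: synchronized HeLa Kyoto cells (double thymidine block for G1/S, nocodazole release for mitosis), protein amounts in NP-40 versus SDS lysates quantified by mass spectrometry, three biological replicates.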
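Wherever solubility in G1/S (NP-40 vs SDS abundance) is given: HeLa Kyoto cells arrested at G1/S by double thymidine block, proteins quantified by TMT10plex mass spectrometry in mild NP-40 versus SDS extracts, three biological replicates.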
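Wherever thermal stability score vs G1/S (z-score of summed log2 fold changes over temperatures) is given: synchronized HeLa Kyoto cells, proteins quantified by TMT10plex mass spectrometry, three biological replicates, mitosis taken 0.5 h after nocodazole release, G1/S directly after double thymidine block.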

Substance | solubility change mitosis (log2) [1] | solubility in G1/S (log2) [2] | melting temperature ([3]; cell cycle stage: G1/S) [°C] | melting temperature ([3]; cell cycle stage: mitosis) [°C] | thermal stability score [4, 5] | thermal stability score ([4]; cell cycle stage: mitosis)
MAPQSLPSSRMAPLGMLLGLLMAACFTFCLSHQNLKEFALTNPEKSSTKETERKETKAEEELDAEVLEVFHPTHEWQALQPGQAVPAGSHVRLNLQTGEREAKLQYEDKFRNNLKGKRLDINTNTYTSQDLKSALAKFKEGAEMESSKEDKARQAEVKRLFRPIEELKKDFDELNVVIETDMQIMVRLINKFNSSSSSLEEKIAALFDLEYYVHQMDNAQDLLSFGGLQVVINGLNSTEPLVKEYAAFVLGAAFSSNPKVQVEAIEGGALQKLLVILATEQPLTAKKKVLFALCSLLRHFPYAQRQFLKLGGLQVLRTLVQEKGTEVLAVRVVTLLYDLVTEKMFAEEEAELTQEMSPEKLQQYRQVHLLPGLWEQGWCEITAHLLALPEHDAREKVLQTLGVLLTTCRDRYRQDPQLGRTLASLQAEYQVLASLELQDGEDEGYFQELLGSVNSLLKELR [SIL1] | -0.0794 | 0.7 | 53.5 | 53.4 | -0.386 | 0.264
GCHFR | 0.498 | 0.27 | 55 | 59.7 | -1.12 | -0.945
MGALRPTLLPPSLPLLLLLMLGMGCWAREVLVPEGPLYRVAGTAVSISCNVTGYEGPAQQNFEWFLYRPEAPDTALGIVSTKDTQFSYAVFKSRVVAGEVQVQRLQGDAVVLKIARLQAQDAGIYECHTPSTDTRYLGSYSGKVELRVLPDVLQVSAAPPGPRGRQAPTSPPRMTVHEGQELALGCLARTSTQKHTHLAVSFGRSVPEAPVGRSTLQEVVGIRSDLAVEAGAPYAERLAAGELRLGKEGTDRYRMVVGGAQAGDAGTYHCTAAEWIQDPDGSWAQIAEKRAVLAHVDVQTLSSQLAVTVGPGERRIGPGEPLELLCNVSGALPPAGRHAAYSVGWEMAPAGAPGPGRLVAQLDTEGVGSLGPGYEGRHIAMEKVASRTYRLRLEAARPGDAGTYRCLAKAYVRGSGTRLREAASARSRPLPVHVREEGVVLEAVAWLAGGTVYRGETASLLCNISVRGGPPGLRLAASWWVERPEDGELSSVPAQLVGGVGQDGVAELGVRPGGGPVSVELVGPRSHRLRLHSLGPEDEGVYHCAPSAWVQHADYSWYQAGSARSGPVTVYPYMHALDTLFVPLLVGTGVALVTGATVLGTITCCFMKRLRKR [IGSF8] | -0.0392 | -0.0809 | 56.3 | 54.7 | -2.98 | -1.56
MAVLLETTLGDVVIDLYTEERPRACLNFLKLCKIKYYNYCLIHNVQRDFIIQTGDPTGTGRGGESIFGQLYGDQASFFEAEKVPRIKHKKKGTVSMVNNGSDQHGSQFLITTGENLDYLDGVHTVFGEVTEGMDIIKKINETFVDKDFVPYQDIRINHTVILDDPFDDPPDLLIPDRSPEPTREQLDSGRIGADEEIDDFKGRSAEEVEEIKAEKEAKTQAILLEMVGDLPDADIKPPENVLFVCKLNPVTTDEDLEIIFSRFGPIRSCEVIRDWKTGESLCYAFIEFEKEEDCEKAFFKMDNVLIDDRRIHVDFSQSVAKVKWKGKGGKYTKSDFKEYEKEQDKPPNLVLKDKVKPKQDTKYDLILDEQAEDSKSSHSHTSKKHKKKTHHCSEEKEDEDYMPIKNTNQDIYREMGFGHYEEEESCWEKQKSEKRDRTQNRSRSRSRERDGHYSNSHKSKYQTDLYERERSKKRDRSRSPKKSKDKEKSKYR [PPIL4] | 0.0472 | -0.23 | 49.2 | 50.3 | 1.3 | 1.99
MATELEYESVLCVKPDVSVYRIPPRASNRGYRASDWKLDQPDWTGRLRITSKGKTAYIKLEDKVSGELFAQAPVEQYPGIAVETVTDSSRYFVIRIQDGTGRSAFIGIGFTDRGDAFDFNVSLQDHFKWVKQESEISKESQEMDARPKLDLGFKEGQTIKLCIGNITNKKGGASKPRTARGGGLSLLPPPPGGKVTIPPPSSSVAISNHVTPPPIPKSNHGGSDADILLDLDSPAPVTTPAPTPVSVSNDLWGDFSTASSSVPNQAPQPSNWVQF [NECAP1] | -0.274 | 0.521 | 51.5 | 52.4 | 0.202 | 0.108
MTSRFGKTYSRKGGNGSSKFDEVFSNKRTTLSTKWGETTFMAKLGQKRPNFKPDIQEIPKKPKVEEESTGDPFGFDSDDESLPVSSKNLAQVKCSSYSESSEAAQLEEVTSVLEANSKISHVVVEDTVVSDKCFPLEDTLLGKEKSTNRIVEDDASISSCNKLITSDKVENFHEEHEKNSHHIHKNADDSTKKPNAETTVASEIKETNDTWNSQFGKRPESPSEISPIKGSVRTGLFEWDNDFEDIRSEDCILSLDSDPLLEMKDDDFKNRLENLNEAIEEDIVQSVLRPTNCRTYCRANKTKSSQGASNFDKLMDGTSQALAKANSESSKDGLNQAKKGGVSCGTSFRGTVGRTRDYTVLHPSCLSVCNVTIQDTMERSMDEFTASTPADLGEAGRLRKKADIATSKTTTRFRPSNTKSKKDVKLEFFGFEDHETGGDEGGSGSSNYKIKYFGFDDLSESEDDEDDDCQVERKTSKKRTKTAPSPSLQPPPESNDNSQDSQSGTNNAENLDFTEDLPGVPESVKKPINKQGDKSKENTRKIFSGPKRSPTKAVYNARHWNHPDSEELPGPPVVKPQSVTVRLSSKEPNQKDDGVFKAPAPPSKVIKTVTIPTQPYQDIVTALKCRREDKELYTVVQHVKHFNDVVEFGENQEFTDDIEYLLSGLKSTQPLNTRCLSVISLATKCAMPSFRMHLRAHGMVAMVFKTLDDSQHHQNLSLCTAALMYILSRDRLNMDLDRASLDLMIRLLELEQDASSAKLLNEKDMNKIKEKIRRLCETVHNKHLDLENITTGHLAMETLLSLTSKRAGDWFKEELRLLGGLDHIVDKVKECVDHLSRDEDEEKLVASLWGAERCLRVLESVTVHNPENQSYLIAYKDSQLIVSSAKALQHCEELIQQYNRAEDSICLADSKPLPHQNVTNHVGKAVEDCMRAIIGVLLNLTNDNEWGSTKTGEQDGLIGTALNCVLQVPKYLPQEQRFDIRVLGLGLLINLVEYSARNRHCLVNMETSCSFDSSICSGEGDDSLRIGGQVHAVQALVQLFLERERAAQLAESKTDELIKDAPTTQHDKSGEWQETSGEIQWVSTEKTDGTEEKHKKEEEDEELDLNKALQHAGKHMEDCIVASYTALLLGCLCQESPINVTTVREYLPEGDFSIMTEMLKKFLSFMNLTCAVGTTGQKSISRVIEYLEHC [WAPL] | -0.133 | -0.00224 | 48.1 | 49.9 | 0.873 | 2.77
